Assay results reported in article PMC7142231, “α1-Microglobulin Binds Illuminated Flavins and Has a Protective Effect Against Sublethal Riboflavin-Induced Damage in Retinal Epithelial Cells” (Frontiers in Physiology, 2020).

Legend:
[1] = target: Cleaved A1M (~22 kDa band formed with illuminated riboflavin or FAD) (human); assay: SDS-PAGE; 12% SDS-PAGE, samples reduced with 5% β-mercaptoethanol and boiled 1 min (similar results non-reducing); A1M with buffer or 40, 200, 1000 μM riboflavin or FAD, illuminated or in darkness 1 h at RT; Coomassie stain and Western blot
[2] = target: the molecule itself; assay: as above

For “Cleaved A1M (~22 kDa band formed with illuminated riboflavin or FAD) (domain or fragment)”, the stoichiometry N [1] was 2.

B1: Recombinant human α1-microglobulin (A1M) with an N-terminal His-tag (natural protein, UniProt P02760 20-203, looked up)
chain: GPVPTPPDNIQVQENFNISRIYGKWYNLAIGSTCPWLKKIMDRMTVSTLVLGEGATEAEISMTSTRWRKGVCEETSGAYEKTDTDGKFLYHKSKWNITMESYVVHTNYDEYAIFLTKKFSRHHGPTITAKLYGRAPQLRETLLQDFRVVAQGVGIPEDSIFTMADRGECVPGEQEPEPILIPRV
notes: human α1-microglobulin (A1M), the lipocalin cut from the AMBP precursor; construct as in Kwasek et al., 2007; also called recombinant A1M; not shown: His-tag, N-terminal, kept
For B1, the “stoichiometry N” value [2] was 2.
